Assays:
Human FGB-rCd4 = biological target: T1, Human FGB-rCd4; assay: ELISA (DELFIA), antigen coated on the well, purified Fab at 50 nM, detected with anti-kappa or anti-lambda mAb and Europium-conjugated anti-mouse mAb
T1 construct: Not the same construct as m1, which has the FBG at the C terminus; also called human TNC FBG-rCD4; human tenascin-C FBG-rCd4-His (FBG at the N terminus of the rat Cd4 tag); not shown: rat Cd4 (domains 3 and 4) tag, the C-terminal His6 tag and the vector-derived junction residues of pBIOCAM4
T1 chain: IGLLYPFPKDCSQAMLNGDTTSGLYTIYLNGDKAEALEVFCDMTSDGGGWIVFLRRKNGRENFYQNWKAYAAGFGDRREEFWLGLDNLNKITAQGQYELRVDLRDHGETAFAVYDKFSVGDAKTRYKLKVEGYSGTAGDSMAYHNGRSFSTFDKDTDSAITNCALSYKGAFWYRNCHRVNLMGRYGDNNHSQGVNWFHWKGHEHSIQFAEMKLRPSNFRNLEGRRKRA

human Fc-His-FBG = biological target: T2, human Fc-His-FBG (human, UniProt P24821 1974-2201); assay: cell-based or functional assay
T2 sequence: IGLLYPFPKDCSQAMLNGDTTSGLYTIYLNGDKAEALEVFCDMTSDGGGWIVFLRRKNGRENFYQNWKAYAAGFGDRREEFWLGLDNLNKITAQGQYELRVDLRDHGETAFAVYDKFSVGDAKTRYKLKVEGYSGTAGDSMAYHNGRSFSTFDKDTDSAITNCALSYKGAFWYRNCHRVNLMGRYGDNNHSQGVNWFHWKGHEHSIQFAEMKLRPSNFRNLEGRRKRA

[1] = biological target: T3, rat tenascin-C rCd4-His-FBG (rat, UniProt P05540 207-392, limits assumed); assay: SPR, captured Fab, 25 C
T3 construct: domain: domains 3 and 4; C-terminal FBG fusion; also called Rat TNC; rat TNC rCD4-His-FBG; not shown: 6His tag
T3 sequence (chain (part 1 of 2)): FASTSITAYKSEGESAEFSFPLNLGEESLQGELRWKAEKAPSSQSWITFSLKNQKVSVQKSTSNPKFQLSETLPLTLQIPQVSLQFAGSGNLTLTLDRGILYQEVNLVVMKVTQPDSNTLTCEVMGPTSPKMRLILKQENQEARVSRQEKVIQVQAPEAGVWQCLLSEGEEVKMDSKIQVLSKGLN
T3 sequence (chain (part 2 of 2)): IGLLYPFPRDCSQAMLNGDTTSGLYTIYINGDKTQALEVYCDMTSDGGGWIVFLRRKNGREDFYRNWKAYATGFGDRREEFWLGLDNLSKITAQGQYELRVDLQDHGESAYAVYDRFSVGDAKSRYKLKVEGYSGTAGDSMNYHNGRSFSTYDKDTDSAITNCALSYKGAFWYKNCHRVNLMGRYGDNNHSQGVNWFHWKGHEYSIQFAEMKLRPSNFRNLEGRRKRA
Description: (§1) Experiments were performed using a BIAcore T100 instrument with CM5 sensor chip according to the protocol provided with the Human Fab Capture Kit (GE, 28-9583-25). […] After reference signal subtraction, the data was fitted to a global 1:1 fit using the T100 BIAevaluation software (FIGS. 6 a-d).

[2] = biological target: T4, human tenascin-R rCd4-His-FBG (rat; human, UniProt P05540 207-392, limits assumed); assay: SPR, captured Fab, 25 C
T4 construct: domain: domains 3 and 4; C-terminal FBG fusion; also called Hu TNR; human TNR rCd4-His-FBG; not shown: 6His tag
T4 sequence (chain (part 1 of 2)): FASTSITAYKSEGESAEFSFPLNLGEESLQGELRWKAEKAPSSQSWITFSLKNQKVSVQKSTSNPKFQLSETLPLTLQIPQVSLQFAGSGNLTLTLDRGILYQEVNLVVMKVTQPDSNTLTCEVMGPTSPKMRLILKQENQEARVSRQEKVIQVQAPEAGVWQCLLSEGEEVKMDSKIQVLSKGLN
T4 sequence (chain (part 2 of 2)): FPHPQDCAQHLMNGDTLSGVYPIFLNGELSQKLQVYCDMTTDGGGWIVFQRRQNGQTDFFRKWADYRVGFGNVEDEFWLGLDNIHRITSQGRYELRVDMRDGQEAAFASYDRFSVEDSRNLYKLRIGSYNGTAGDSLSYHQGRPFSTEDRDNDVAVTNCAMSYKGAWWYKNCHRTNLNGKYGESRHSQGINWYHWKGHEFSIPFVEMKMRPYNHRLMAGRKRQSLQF
Description: as §1

[3] = biological target: T5, human tenascin-C rCd4-His-FBG (rat; human, UniProt P05540 207-392, limits assumed); assay: SPR, captured Fab, 25 C
T5 construct: domain: domains 3 and 4; C-terminal FBG fusion; biotinylated in the ELISA and HTRF screens; also called Hu TNC; human TNC rCd4-His-FBG; not shown: 6His tag
T5 sequence (chain (part 1 of 2)): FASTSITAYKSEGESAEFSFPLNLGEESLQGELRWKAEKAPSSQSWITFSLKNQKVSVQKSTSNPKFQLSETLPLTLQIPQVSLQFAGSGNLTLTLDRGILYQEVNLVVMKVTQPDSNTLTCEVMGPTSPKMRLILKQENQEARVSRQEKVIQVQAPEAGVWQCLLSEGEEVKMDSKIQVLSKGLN
T5 sequence (chain (part 2 of 2)): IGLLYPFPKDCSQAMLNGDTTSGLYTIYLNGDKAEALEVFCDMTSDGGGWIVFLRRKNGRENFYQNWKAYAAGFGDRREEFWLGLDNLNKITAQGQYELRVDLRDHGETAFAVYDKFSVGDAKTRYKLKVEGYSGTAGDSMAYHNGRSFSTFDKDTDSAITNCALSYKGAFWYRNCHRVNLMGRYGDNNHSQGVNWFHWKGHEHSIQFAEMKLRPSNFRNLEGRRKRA
Description: as §1

[4] = biological target: T6, mouse tenascin-C rCd4-His-FBG (rat; mouse, UniProt P05540 207-392, limits assumed); assay: SPR, captured Fab, 25 C
T6 construct: domain: domains 3 and 4; C-terminal FBG fusion; biotinylated in the ELISA screen; also called Mu TNC; mouse TNC rCd4-His-FBG; not shown: 6His tag
T6 sequence (chain (part 1 of 2)): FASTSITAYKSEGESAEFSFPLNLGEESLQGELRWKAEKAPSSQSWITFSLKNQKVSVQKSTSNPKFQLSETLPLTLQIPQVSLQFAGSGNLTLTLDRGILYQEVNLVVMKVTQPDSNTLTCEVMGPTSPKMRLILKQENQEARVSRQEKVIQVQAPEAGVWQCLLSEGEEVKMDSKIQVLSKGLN
T6 sequence (chain (part 2 of 2)): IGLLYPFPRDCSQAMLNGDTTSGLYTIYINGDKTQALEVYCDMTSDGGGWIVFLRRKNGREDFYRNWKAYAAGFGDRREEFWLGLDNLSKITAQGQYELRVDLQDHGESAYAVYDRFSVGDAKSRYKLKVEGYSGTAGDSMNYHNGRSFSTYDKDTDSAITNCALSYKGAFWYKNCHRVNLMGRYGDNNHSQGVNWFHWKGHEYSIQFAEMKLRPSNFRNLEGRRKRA
Description: as §1

[5] = biological target: T4, human tenascin-R rCd4-His-FBG; assay: SPR steady state, captured Fab, 25 C
Description: as §1

[6] = biological target: T6, mouse tenascin-C rCd4-His-FBG; assay: SPR steady state, captured Fab, 25 C
Description: as §1

[7] = biological target: T5, human tenascin-C rCd4-His-FBG; assay: SPR, 25 C
[8] = biological target: T6, mouse tenascin-C rCd4-His-FBG; assay: SPR, parental antibody
[9] = biological target: T5, human tenascin-C rCd4-His-FBG; assay: SPR, 25 C; format not stated; SPR at 25 C

| Binder | binding result (Human FGB-rCd4) | IC50, inhibition of Fc-His-HuFBG-evoked IL-8 release, THP1-Blue cells (human Fc-His-FBG) | IC50, inhibition of Fc-His-HuFBG-evoked alkaline phosphatase, THP1-Blue cells (human Fc-His-FBG) | Kd [1] | koff [1] | kon [1] | Kd [2] | koff [2] | kon [2] | Kd [3] | koff [3] | kon [3] | Kd [4] | koff [4] | kon [4] | Kd [5] | Kd [6] | fold stronger affinity than 2A5 [7] | fold difference in affinity between human and mouse rCd4-his-FBG [8] | Kd [9] |
| --- | --- | --- | --- | --- | --- | --- | --- | --- | --- | --- | --- | --- | --- | --- | --- | --- | --- | --- | --- | --- |
| Fab B12 (Fab, V domains shown, monomeric Fab) VH: QVQLVESGGGLVQPGRSLRLSCAASGFTFDDYAMHWVRQAPGKGLEWVSGISGSGGSTYYADSVKGRFTISRDNAKNSLYLQMNSLRAEDTALYYCAKDISAVPDTFDIWGQGTMVTVSS VL: DIQMTQSPASLPTPVGDRVTITCRASQYIQGFLNWYQQKPGKAPKLLIYDASNLETGVPSRFSGSGSGTDFTLTISSLQPEDFATYYCQQSYSTPQTFGQGTKVDIKR | binds | 6.9 nM | 1.7 nM | 7.9 nM | 0.0748 s⁻¹ | 9.46e+06 M⁻¹ s⁻¹ | 33.9 nM | 0.0473 s⁻¹ | 1.4e+06 M⁻¹ s⁻¹ | 0.111 nM | 0.0003 s⁻¹ | 2.66e+06 M⁻¹ s⁻¹ | 13 nM | 0.0675 s⁻¹ | 5.22e+06 M⁻¹ s⁻¹ | 36.1 nM | 18.7 nM | ~100 fold |  |  |
| Fab 2A5 (Fab, V domains shown, monomeric Fab) VH: EVRLVQSGAEVKKPGASVKVSCKVSGYTLTELSMHWVRQAPGKGLEWMGGFDPEDGETIYAQKFQGRVTMTEDTSTDTAYMELSSLRSEDTAVYYCATAQKETYALTYWGQGTLVTVSS VL: DIQMTQSPASLPTSVGDRVTITCRASQYIQGFLNWYQQKPGKAPRLLIYAASTLQDGVPSRFSGSGYGTDFTLTISSLQPEDFATYYCQQSYSTPWTFGQGTKVEIKR | binds | 28.5 nM | 20.6 nM |  |  |  |  |  |  | 11.4 nM | 0.00563 s⁻¹ | 496000 M⁻¹ s⁻¹ | 78.6 nM | 0.0347 s⁻¹ | 441000 M⁻¹ s⁻¹ |  |  |  | 6.9 fold | 15 nM |
